These results are taken from US8124835B2, “Acyl-coa-dependent diacylglycerol acyltransferas 1 (DGAT1) gene from Tropaeolum majus, protein encoded thereby and uses thereof” (National Research Council of Canada, priority 2006, dated 2012).

Residue numbers refer to the chain shown, from its start. Names may count otherwise. “Also recorded” adds a separate entry of the source.

This experiment has as its system DGAT activity. Put plainly: DGAT activity of site-directed mutagenized (SDM) TmDGAT1s expressed in yeast quadruple mutant H1246 MATα. In kind it is biochemical, Tropaeolum majus. From the text:
FIG. 13. Expression of site-directed mutagenized (SDM) TmDGAT1 cDNAs in yeast quadruple mutant H1246 MATα. (A) The nasturtium DGAT1 cDNAs in pYES2/NT plasmid were transformed into a yeast DGAT mutant strain: H1246 MATα. The specific SDM changes were: F2R=Phe^439 to Arg (SEQ. ID. NO: 4, refer to SEQ. ID. NO: 10 for the nucleotide sequence); P2R=Pro^216 to Arg (SEQ. ID. NO: 5, refer to SEQ. ID. NO: 11 for the nucleotide sequence); Y2G_W2G=Tyr^392 to Gly+Trp^395 to Gly (SEQ. ID. NO: 9, refer to SEQ. ID. NO: 15 for the nucleotide sequence); Y2A=Tyr^392 to Ala (SEQ. ID. NO: 8, refer to SEQ. ID. NO: 14 for the nucleotide sequence); S2A=Ser^197 to Ala (SEQ. ID. NO: 6, refer to SEQ. ID. NO: 12 for the nucleotide sequence) and E2V=E^145 to Val (SEQ. ID. NO: 7, refer to SEQ. ID. NO: 13 for the nucleotide sequence). Yeast cells transformed with pYES2/NT plasmid only was used as a control. The mutant, transformed with the native TmDGAT1, was used as a positive DGAT control. Following the induction in the presence of galactose, the transformants were lysed and assayed for DGAT activity. (B) Western blot of the SDM TmDGATs using an Anti-Xpress antibody. Following a 7 h lyse, a 15,000×g protein pellet isolated and proteins separated by SDS-PAGE.
FIG. 14. SDM TmDGATs (SnRK1 and Tyr-P sites) activity utilizing ^14C labeled erucoyl-CoA or oleoyl-CoA+sn-1,2-diolein or dierucin. SDM TmDGATs were transformed into yeast DGAT mutant, H1246 MATα, following induction by galactose the yeast were assayed for DGAT activity. Activity is expressed as a percent of native TmDGAT, with native TmDGAT activity set at 100%.
The TmDGAT1 ORF (SEQ. ID. NO: 2) in pYES2.1/V5-His-TOPO plasmid was transformed into a quadruple yeast mutant H1246MATα (Sandager et al, 2002) using the S.c. EasyComp™ transformation Kit (Invitrogen). Yeast cells transformed with pYES2.1/V5-His-TOPO plasmid only were used as a control. Transformants were selected by growth on synthetic complete medium lacking uracil (SC-ura), supplemented with 2% (w/v) glucose. The colonies were transferred into liquid SC-ura with 2% (w/v) glucose and grown at 28° C. overnight. The overnight cultures were diluted to an OD of 0.4 in induction medium (SC-ura+2% Galactose+1% Raffinose), and were induced for 24-36 hours at 28° C. Cells were collected and broken using glass beads. The crude protein concentration in the lysates was normalized using the Biorad assay based on the method of (Bradford, 1976) and assayed for DGAT activity. DGAT assays were conducted at pH 7.4, with shaking at 100 rev/min in a water bath at 30° C. for 60 min. Assay mixtures (0.5 ml final volume) contained 500 μg lysate protein normalized as described above, 90 mM HEPES-NaOH, 200 μM sn-1,2 diolein or sn-1,2 dierucin (pre-purified by TLC on 10% borate silica H plates) in 0.02% Tween-20, and 18 μM 1-^14C acyl-CoA (specific activity 2 nCi/nmol) as the acyl donor. The ^14C-labelled TAGs were isolated and counted as described above for insect cell expression.
To introduce point mutations into the Tropaeolum majus DGAT1 coding region, we used a QuikChange™ site-directed mutagenesis kit (Stratagene). Primers were complementary to opposite strands of pYES2.1/V5-His TOPO yeast expression vector (Invitrogen) containing the TmDGAT1 gene. During the PCR, primers were extended with PfuTurbo DNA polymerase. This polymerase replicated both strands with high fidelity and without displacing the mutated oligonucleotide primers. The cycling parameters used for site-directed mutagenesis were as follows: initial denaturation at 95° C. for 30 s, followed by 15 cycles at 95° C. for 30 s, 55° C. for 1 min, and 68° C. for 15 min, with termination at 68° C. for 15 min. Following the PCR reaction, the product was treated with DpnI endonuclease (target sequence: 5′-Gm6ATC-3′) which is specific for methylated and hemimethylated DNA, used to digest the parental DNA template and to select for the mutated DNA.

Where [1] appears, read: recombinant SDM protein from yeast H1246MATα.

B1: P216R (protein)
chain: MAVAESSQNTTTMSGHGDSDLNNFRRRKPSSSVIEPSSSGFTSTNGVPATGHVAENRDQDRVGAMENATGSVNLIGNGGGVVIGNEEKQVGETDIRFTYRPSFPAHRRVRESPLSSDAIFKQSHAGLFNLCIVVLIAVNSRLIIENLMKYGWLIDTGFWFSSRSLGDWSIFMCCLTLPIFPLAAFIVEKLVQRNHISELVAVLLHVIVSTAAVLYRVIVILTCDSVYMSGVVLMLFGCIMWLKLVSYAHTSSDIRTLAKSGYKGDAHPNSTIVSCSYDVSLKSLAYFMVAPTLCYQPSYPRSSCIRKGWVVRQFVKLIVFIGLMGFIIEQYINPIVRNSKHPLKGDFLYAIERVLKLSVPNLYVWLCMFYSFFHLWLNILAELLRFGDREFYKDWWNAKTVAEYWKMWNMPVHRWMVRHLYFPCLRNGIPKEGAIIIAFLVSGAFHELCIAVPCHVFKLWAFIGIMFQVPLVLITNYLQEKFSNSMVGNMIFWFIFCILGQPMCVLLYYHDLINLKEK
With B1, the “DGAT1 activity compared to recombinant WT TmDGAT1 (in words)” value is listed as “total loss of DGAT activity; also recorded: abolished” (recombinant SDM protein from yeast H1246MATα, listed as Proline^216 (changed to an Arg)) and “total loss of DGAT1 activity” (recombinant SDM protein from yeast H1246MATα, listed as Proline^216 with Arginine).

B2: S197A: SDM TmDGAT1, Ser197 to Ala in putative SnRK1 phosphorylation motif (SEQ ID NO: 6) (protein, listed as Tropaeolum majus)
chain: B1 chain with S197A, R216P
Take B2: the “increase in trierucin production compared to the native DGAT1” value (erucoyl-CoA:sn-1,2-dierucin pairing of substrates) is recorded as approximately 40%. For the same molecule, the “increase in DGAT1 activity compared to wild type TmDGAT1” value under setting [1] is on record as “up to 125%”.

B3: E145V: SDM TmDGAT1, Glu145 to Val in the catalytic site (SEQ ID NO: 7) (protein, listed as Tropaeolum majus)
chain: B1 chain with E145V, R216P
For B3, under setting [1], the “decrease in DGAT1 activity compared to wild type TmDGAT1” value came out at 43%.

B4: Y392G + W395G (protein)
chain: B1 chain with R216P, Y392G, W395G
With B4, the “DGAT1 activity compared to recombinant WT TmDGAT1 (in words)” value under setting [1] is listed as “total loss of activity”.

B5: Y392A (protein)
chain: B1 chain with R216P, Y392A
Consider B5, for which the “decrease in DGAT1 activity compared to wild type TmDGAT1” value under setting [1] turned out to be 80%.
